US20150087814A1 (UNIVERSITY OF MARYLAND BALTIMORE, published 2015)

Key:
Experiment in all cases: SPR (Biacore T100), antibody captured on protein A chip, receptor injected as analyte
[1] = target: T1, FcγRIIIa-V158 (UniProt P08637 17-208, limits assumed)
T1 construct: It names the V158 allele but states no substitution against an entry; also called FcγRIIIa-V158 allele

[2] = target: T2, FcγRIIb (UniProt P31994 46-217, limits assumed)
T2 construct: also called FcγIIb receptor
T2 sequence (looked up): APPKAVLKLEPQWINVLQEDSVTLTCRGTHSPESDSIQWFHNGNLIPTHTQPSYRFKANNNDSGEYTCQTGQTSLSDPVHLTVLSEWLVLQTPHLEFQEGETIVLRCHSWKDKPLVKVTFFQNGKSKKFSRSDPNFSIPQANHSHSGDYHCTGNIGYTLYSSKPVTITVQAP

[3] = target: T3, FcγRIIIa-F158 (UniProt P08637 17-208, limits assumed)
T3 construct: also called FcγRIIIa-F158 allele
T3 sequence (P08637 17-208 limits assumed): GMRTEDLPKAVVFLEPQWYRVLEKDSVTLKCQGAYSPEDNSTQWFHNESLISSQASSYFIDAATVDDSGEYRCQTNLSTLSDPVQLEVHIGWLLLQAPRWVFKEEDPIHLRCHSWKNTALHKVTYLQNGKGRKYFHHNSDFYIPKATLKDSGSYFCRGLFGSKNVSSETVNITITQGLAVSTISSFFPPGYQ

T1 sequence (P08637 17-208 F176V limits assumed): as the sequence (P08637 17-208 limits assumed) above, with F160V counted along it

- Kd [1]: 0.252 µM
- Kd [2]: 2 µM
- Kd [3]: 1.04 µM
B1: commercial rituximab (rituxan, Genentech Inc.) (antibody)
chain 1: not shown
chain 2: QIVLSQSPAILSASPGEKVTMTCRASSSVSYIHWFQQKPGSSPKPWIYATNLASGVPVRFSGSGSGTSYSLTISRVEAEDAATYYCQQWTSNPPTFGGGTKLEIKRTVAAPSVFIFPPSDEQLKSGTASVVCLLNNFYPREAKVQWKVDNALQSGNSQESVTEQDSKDSTYSLSSTLTLSKADYEKHKVYACEVTHQGLSSPVTKSFNRGEC
